This passage reports Kd results from JP2013242308A.

The experiment has as its target テネイシンC (human) (UniProt P24821). Description: SPR (Biacore 2000). In general terms: In SPR one partner is held on a chip, and binding of the other changes the refractive index at the surface.

B1: 抗TNC−4F10のscFvフラグメント(scFv 4F10) (scFv, not shown: small tags and cut ends)
scFv: EVLLQQSGPELVKPGASVKIPCKASGYTFTDYNMDWMKQSHGKSLEWIGDINPKSGNSIYNQKFKGKATLTVDKSSSTAYMELRSLTSEDTAVYYCAGRDWSAWFAFWGQGTLVSVSAGGGGSGGGGSGGGGSDVVMTQTPLTLSVIIGQPASISCKSSQSLLYSNGKTYLNWLLQRPGQSPKRLIYLVSKLDSGVPDRFTGSGSGTDFTLKISRVEAEDLGDYYCVQTTHFPWTFGGGTKLEIKDYKDDDDK
Broadly, the Kd is the constant that tells how readily two partners part at equilibrium. Read a high Kd as lower affinity. For the molecule B1, the dissociation constant (Kd) amounted to 40 nM.
